# B1: Sulfolobus acidocaldarius GPN-loop GTPase SaGPN (Saci_1281) (enzyme)
# chain: YFIFVLGTAGSGKTTLVKALQDYLLNNELDTAIINLDPAVEVLPYKPDIDAREYVDVYDVMNKYELGPNSSLVISVDLLLTKAKELKEDLNQLQANYVLVDTPGQIELFAYRDTGKILSSFISEGSKSVSVFLFDSYLSKDPKSFLSLFLLSSSIKFRIDMPQISVLSKVDLLSSSELERMRSWIEDGSIIDELGSIDEYSFELVKTIVENLESFPIPVSSTNFSGLDQLYAEVQKVLAGGEDFETEEPNPRL
# notes: SaGPN (Saci_1281), the solitary GPN-loop GTPase of Sulfolobus acidocaldarius, Uniprot Q4J9A7; residues Y2-A240 were built in both structures, 14 amino acids at the C-terminus are disordered; printed mass 30.5 kDa; Crystallised with GppNHp or GDP and Mg2+; source: E. coli BL21(DE3) Rosetta, purified (heat treatment, Ni-NTA, SEC); not shown: His10, N-terminal, kept
# Molecular target: the molecule itself
# Assay: SEC; HiLoad 16/60 Superdex 200 pg; 150 mM NaCl, 50 mM Tris, 10 mM MgCl2, pH 8.0; monodisperse peak at ~60 kDa against 30.5 kDa for the monomer
protein,measurement,value
B1,stoichiometry N,2
